According to PMC314469, “Protein Interaction Networks by Proteome Peptide Scanning” (PLoS Biology, 2004):
Blank lines part the entries; values can stand above or below the binder they belong to.

Experiments:
Experiment in all cases: SPOT array
[1] = molecular target: T1, Boi1 SH3 (BOI1_YEAST), P38041
T1 chain: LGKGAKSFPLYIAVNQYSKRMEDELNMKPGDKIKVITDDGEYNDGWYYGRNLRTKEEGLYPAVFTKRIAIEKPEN

[2] = molecular target: T2, Boi2 SH3 (BOI2_YEAST), P39969
T2 chain: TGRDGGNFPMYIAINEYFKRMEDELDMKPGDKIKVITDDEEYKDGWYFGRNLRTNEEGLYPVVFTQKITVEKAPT

[3] = molecular target: T3, Rvs167 SH3 (RV167_YEAST), P39743
T3 chain: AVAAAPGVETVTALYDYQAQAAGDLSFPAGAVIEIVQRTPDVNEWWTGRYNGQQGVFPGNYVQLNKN

[4] = molecular target: T4, Yfr024 SH3 (LSB3_YEAST), P43603
T4 chain: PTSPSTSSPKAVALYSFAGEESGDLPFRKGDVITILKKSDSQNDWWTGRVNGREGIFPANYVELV

[5] = molecular target: T5, Yhr016c SH3 (YSC84_YEAST), P32793
T5 chain: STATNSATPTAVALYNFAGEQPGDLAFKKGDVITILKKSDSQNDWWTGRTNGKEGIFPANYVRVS

normalised SPOT signal, Boehringer light units (BLU); mean over the file's lines of this peptide [1]: 120 | normalised SPOT signal, Boehringer light units (BLU); mean over the file's lines of this peptide [2]: 9.7 | normalised SPOT signal, Boehringer light units (BLU); mean over the file's lines of this peptide [3]: 4.1 | normalised SPOT signal, Boehringer light units (BLU); mean over the file's lines of this peptide [4]: 2740 | normalised SPOT signal, Boehringer light units (BLU); mean over the file's lines of this peptide [5]: 84
B2: YLR318W 152-165 (peptide)
chain: SNEPHLPPKWVQRS

normalised SPOT signal, Boehringer light units (BLU); mean over the file's lines of this peptide [1]: 103 | normalised SPOT signal, Boehringer light units (BLU); mean over the file's lines of this peptide [2]: 42.4 | normalised SPOT signal, Boehringer light units (BLU); mean over the file's lines of this peptide [3]: 8.3 | normalised SPOT signal, Boehringer light units (BLU); mean over the file's lines of this peptide [4]: 13.6 | normalised SPOT signal, Boehringer light units (BLU); mean over the file's lines of this peptide [5]: 206
B3: YLR330W 177-190 (peptide)
chain: SLGPLDPLKEISDL

normalised SPOT signal, Boehringer light units (BLU); mean over the file's lines of this peptide [1]: 119 | normalised SPOT signal, Boehringer light units (BLU); mean over the file's lines of this peptide [2]: 73.2 | normalised SPOT signal, Boehringer light units (BLU); mean over the file's lines of this peptide [3]: 78.6 | normalised SPOT signal, Boehringer light units (BLU); mean over the file's lines of this peptide [4]: 576 | normalised SPOT signal, Boehringer light units (BLU); mean over the file's lines of this peptide [5]: 112
B5: YNL064C 104-117 (peptide)
chain: AQRPRGPQRGKDIK

normalised SPOT signal, Boehringer light units (BLU); mean over the file's lines of this peptide [1]: 23.4 | normalised SPOT signal, Boehringer light units (BLU); mean over the file's lines of this peptide [2]: 56.4 | normalised SPOT signal, Boehringer light units (BLU); mean over the file's lines of this peptide [3]: 40.5 | normalised SPOT signal, Boehringer light units (BLU); mean over the file's lines of this peptide [4]: 22.9 | normalised SPOT signal, Boehringer light units (BLU); mean over the file's lines of this peptide [5]: 259
B10: YKR054C 2535-2548 (peptide)
chain: SNPPTDPGRIPMSE

normalised SPOT signal, Boehringer light units (BLU); mean over the file's lines of this peptide [1]: 44.6 | normalised SPOT signal, Boehringer light units (BLU); mean over the file's lines of this peptide [2]: 19.1 | normalised SPOT signal, Boehringer light units (BLU); mean over the file's lines of this peptide [3]: 196 | normalised SPOT signal, Boehringer light units (BLU); mean over the file's lines of this peptide [4]: 20300 | normalised SPOT signal, Boehringer light units (BLU); mean over the file's lines of this peptide [5]: 20300
B11: YPL202C 314-327 (peptide)
chain: SILPSTPTRPLSQS

normalised SPOT signal, Boehringer light units (BLU); mean over the file's lines of this peptide [1]: 2830 | normalised SPOT signal, Boehringer light units (BLU); mean over the file's lines of this peptide [2]: 23400 | normalised SPOT signal, Boehringer light units (BLU); mean over the file's lines of this peptide [3]: 1380 | normalised SPOT signal, Boehringer light units (BLU); mean over the file's lines of this peptide [4]: 6950 | normalised SPOT signal, Boehringer light units (BLU); mean over the file's lines of this peptide [5]: 4120
B18: YLR244C 90-103 (peptide)
chain: ASYPLTPRRYVPED

normalised SPOT signal, Boehringer light units (BLU); mean over the file's lines of this peptide [1]: 98.3 | normalised SPOT signal, Boehringer light units (BLU); mean over the file's lines of this peptide [2]: 37 | normalised SPOT signal, Boehringer light units (BLU); mean over the file's lines of this peptide [3]: 39 | normalised SPOT signal, Boehringer light units (BLU); mean over the file's lines of this peptide [4]: 605 | normalised SPOT signal, Boehringer light units (BLU); mean over the file's lines of this peptide [5]: 191
B19: YNL140C 149-162 (peptide)
chain: AVLPIEPMKIKGTT

normalised SPOT signal, Boehringer light units (BLU); mean over the file's lines of this peptide [1]: 41.4 | normalised SPOT signal, Boehringer light units (BLU); mean over the file's lines of this peptide [2]: 40.1 | normalised SPOT signal, Boehringer light units (BLU); mean over the file's lines of this peptide [3]: 11.8 | normalised SPOT signal, Boehringer light units (BLU); mean over the file's lines of this peptide [4]: 33.2 | normalised SPOT signal, Boehringer light units (BLU); mean over the file's lines of this peptide [5]: 119
B20: YKR061W 225-238 (peptide)
chain: SDFPYDPFKVMRQN

normalised SPOT signal, Boehringer light units (BLU); mean over the file's lines of this peptide [1]: 330 | normalised SPOT signal, Boehringer light units (BLU); mean over the file's lines of this peptide [2]: 33.6 | normalised SPOT signal, Boehringer light units (BLU); mean over the file's lines of this peptide [3]: 42 | normalised SPOT signal, Boehringer light units (BLU); mean over the file's lines of this peptide [4]: 231 | normalised SPOT signal, Boehringer light units (BLU); mean over the file's lines of this peptide [5]: 245
B21: YJL139C 225-238 (peptide)
chain: SDFPYDPFRVMRLK

Continued, binder first:

B1: YBL095W 165-178 (peptide)
chain: SGFPLLPSKRGVTA
normalised SPOT signal, Boehringer light units (BLU); mean over the file's lines of this peptide [1]: 100 | normalised SPOT signal, Boehringer light units (BLU); mean over the file's lines of this peptide [2]: 22 | normalised SPOT signal, Boehringer light units (BLU); mean over the file's lines of this peptide [3]: 354 | normalised SPOT signal, Boehringer light units (BLU); mean over the file's lines of this peptide [4]: 4190 | normalised SPOT signal, Boehringer light units (BLU); mean over the file's lines of this peptide [5]: 314

B4: YAR019C 585-598 (peptide)
chain: ATRPSSPMRHKSIS
normalised SPOT signal, Boehringer light units (BLU); mean over the file's lines of this peptide [1]: 168 | normalised SPOT signal, Boehringer light units (BLU); mean over the file's lines of this peptide [2]: 302 | normalised SPOT signal, Boehringer light units (BLU); mean over the file's lines of this peptide [3]: 1180 | normalised SPOT signal, Boehringer light units (BLU); mean over the file's lines of this peptide [4]: 6110 | normalised SPOT signal, Boehringer light units (BLU); mean over the file's lines of this peptide [5]: 1730

B6: YDR403W 216-229 (peptide)
chain: SILPAFPSKSSNEQ
normalised SPOT signal, Boehringer light units (BLU); mean over the file's lines of this peptide [1]: 131 | normalised SPOT signal, Boehringer light units (BLU); mean over the file's lines of this peptide [2]: 25.1 | normalised SPOT signal, Boehringer light units (BLU); mean over the file's lines of this peptide [3]: 68.1 | normalised SPOT signal, Boehringer light units (BLU); mean over the file's lines of this peptide [4]: 441 | normalised SPOT signal, Boehringer light units (BLU); mean over the file's lines of this peptide [5]: 108

B7: YAR002W 11-24 (peptide)
chain: ATVPSAPYRKQIIS
normalised SPOT signal, Boehringer light units (BLU); mean over the file's lines of this peptide [1]: 30.5 | normalised SPOT signal, Boehringer light units (BLU); mean over the file's lines of this peptide [2]: 53.7 | normalised SPOT signal, Boehringer light units (BLU); mean over the file's lines of this peptide [3]: 145 | normalised SPOT signal, Boehringer light units (BLU); mean over the file's lines of this peptide [4]: 1890 | normalised SPOT signal, Boehringer light units (BLU); mean over the file's lines of this peptide [5]: 718

B8: YBR108W 727-740 (peptide)
chain: APTPPAPSRSEKLH
normalised SPOT signal, Boehringer light units (BLU); mean over the file's lines of this peptide [1]: 152 | normalised SPOT signal, Boehringer light units (BLU); mean over the file's lines of this peptide [2]: 16.8 | normalised SPOT signal, Boehringer light units (BLU); mean over the file's lines of this peptide [3]: 49.2 | normalised SPOT signal, Boehringer light units (BLU); mean over the file's lines of this peptide [4]: 4690 | normalised SPOT signal, Boehringer light units (BLU); mean over the file's lines of this peptide [5]: 448

B9: YHL040C 345-358 (peptide)
chain: ARDPILPYRLVKDR
normalised SPOT signal, Boehringer light units (BLU); mean over the file's lines of this peptide [1]: 322 | normalised SPOT signal, Boehringer light units (BLU); mean over the file's lines of this peptide [2]: 46.6 | normalised SPOT signal, Boehringer light units (BLU); mean over the file's lines of this peptide [3]: 437 | normalised SPOT signal, Boehringer light units (BLU); mean over the file's lines of this peptide [4]: 16800 | normalised SPOT signal, Boehringer light units (BLU); mean over the file's lines of this peptide [5]: 4220

B12: YJL036W 96-109 (peptide)
chain: SIIPPLPDKKVFQY
normalised SPOT signal, Boehringer light units (BLU); mean over the file's lines of this peptide [1]: 40.2 | normalised SPOT signal, Boehringer light units (BLU); mean over the file's lines of this peptide [2]: 49 | normalised SPOT signal, Boehringer light units (BLU); mean over the file's lines of this peptide [3]: 22.3 | normalised SPOT signal, Boehringer light units (BLU); mean over the file's lines of this peptide [4]: 6960 | normalised SPOT signal, Boehringer light units (BLU); mean over the file's lines of this peptide [5]: 174

B13: YCR023C 384-397 (peptide)
chain: AVDPENPKKLASKF
normalised SPOT signal, Boehringer light units (BLU); mean over the file's lines of this peptide [1]: 74.5 | normalised SPOT signal, Boehringer light units (BLU); mean over the file's lines of this peptide [2]: 53.1 | normalised SPOT signal, Boehringer light units (BLU); mean over the file's lines of this peptide [3]: 5.3 | normalised SPOT signal, Boehringer light units (BLU); mean over the file's lines of this peptide [4]: 0 | normalised SPOT signal, Boehringer light units (BLU); mean over the file's lines of this peptide [5]: 42.7

B14: YIL078W 68-81 (peptide)
chain: ASMPRVPLKIVLKD
normalised SPOT signal, Boehringer light units (BLU); mean over the file's lines of this peptide [1]: 101 | normalised SPOT signal, Boehringer light units (BLU); mean over the file's lines of this peptide [2]: 282 | normalised SPOT signal, Boehringer light units (BLU); mean over the file's lines of this peptide [3]: 581 | normalised SPOT signal, Boehringer light units (BLU); mean over the file's lines of this peptide [4]: 6880 | normalised SPOT signal, Boehringer light units (BLU); mean over the file's lines of this peptide [5]: 690

B15: YIL108W 577-590 (peptide)
chain: ASKPSVPPRNYFSK
normalised SPOT signal, Boehringer light units (BLU); mean over the file's lines of this peptide [1]: 1130 | normalised SPOT signal, Boehringer light units (BLU); mean over the file's lines of this peptide [2]: 44.5 | normalised SPOT signal, Boehringer light units (BLU); mean over the file's lines of this peptide [3]: 3860 | normalised SPOT signal, Boehringer light units (BLU); mean over the file's lines of this peptide [4]: 20100 | normalised SPOT signal, Boehringer light units (BLU); mean over the file's lines of this peptide [5]: 9380

B16: YBL105C 587-600 (peptide)
chain: APLPPQPRKHDKTP
normalised SPOT signal, Boehringer light units (BLU); mean over the file's lines of this peptide [1]: 217 | normalised SPOT signal, Boehringer light units (BLU); mean over the file's lines of this peptide [2]: 57.8 | normalised SPOT signal, Boehringer light units (BLU); mean over the file's lines of this peptide [3]: 52.6 | normalised SPOT signal, Boehringer light units (BLU); mean over the file's lines of this peptide [4]: 1150 | normalised SPOT signal, Boehringer light units (BLU); mean over the file's lines of this peptide [5]: 372

B17: YER025W 174-187 (peptide)
chain: SQRPGSPGRYKLVR
normalised SPOT signal, Boehringer light units (BLU); mean over the file's lines of this peptide [1]: 123 | normalised SPOT signal, Boehringer light units (BLU); mean over the file's lines of this peptide [2]: 51.1 | normalised SPOT signal, Boehringer light units (BLU); mean over the file's lines of this peptide [3]: 94 | normalised SPOT signal, Boehringer light units (BLU); mean over the file's lines of this peptide [4]: 634 | normalised SPOT signal, Boehringer light units (BLU); mean over the file's lines of this peptide [5]: 202

B22: YGR162W 364-377 (peptide)
chain: ATTPAIPTKSDEAE
normalised SPOT signal, Boehringer light units (BLU); mean over the file's lines of this peptide [1]: 70.8 | normalised SPOT signal, Boehringer light units (BLU); mean over the file's lines of this peptide [2]: 42.2 | normalised SPOT signal, Boehringer light units (BLU); mean over the file's lines of this peptide [3]: 86.1 | normalised SPOT signal, Boehringer light units (BLU); mean over the file's lines of this peptide [4]: 166 | normalised SPOT signal, Boehringer light units (BLU); mean over the file's lines of this peptide [5]: 0
